Laboratory results published in IntAct's records for PubMed 22493017.

B1: Protein TonB (Escherichia coli (strain K12)), P02929 (parent)
chain: MTLDLPRRFPWPTLLSVCIHGAVVAGLLYTSVHQVIELPAPAQPISVTMVTPADLEPPQAVQPPPEPVVEPEPEPEPIPEPPKEAPVVIEKPKPKPKPKPKPVKKVQEQPKRDVKPVESRPASPFENTAPARLTSSTATAATSKPVTSVASGPRALSRNQPQYPARAQALRIEGQVKVKFDVTPDGRVDNVQILSAKPANMFEREVKNAMRRWRYEPGKPGSGIVVNILFKINGTTEIQ
partner: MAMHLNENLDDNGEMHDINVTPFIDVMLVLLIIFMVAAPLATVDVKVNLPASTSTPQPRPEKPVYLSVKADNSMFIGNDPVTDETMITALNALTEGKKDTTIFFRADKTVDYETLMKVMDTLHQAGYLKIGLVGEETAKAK
B2: Biopolymer transport protein ExbD (Escherichia coli (strain K12)), P0ABV2 (parent)
chain: B1 partner

Variants of: B1
Conditions: with exbd_ecoli exbD, P0ABV2

effect of a mutation on the interaction	Variant
increasing interaction	F202C
increasing interaction	R212C
increasing interaction	N200C
increasing interaction	L170C
increasing interaction	R204C

More lines, now with the values behind:

Variant	effect of a mutation on the interaction
A150C	increasing interaction
G152C	increasing interaction
P164C	increasing interaction
Q168C	increasing interaction
R166C	increasing interaction

Variants of: B2
Conditions: with tonb_ecoli tonB, P02929

effect of a mutation on the interaction	Variant
increasing interaction	MAMHLNENLDDNGEMHDINVTPFIDVMLVLLIIFMVAAPLATVDVKVNLPASTSTPQPRPEKPVYLSVKADNSMFIGNDPVTDETMITALNALTEGKKDTTIFFRADKCVDYETLMKVMDTLHQAGYLKIGLVGEETAKAK [T109C]
increasing interaction	MAMHLNENLDDNGEMHDINVTPFIDVMLVLLIIFMVAAPLATVDVKVNLPASTSTPQPRPEKPVYLSVKADNSMFIGNDPVTDETMITALNCLTEGKKDTTIFFRADKTVDYETLMKVMDTLHQAGYLKIGLVGEETAKAK [A92C]
increasing interaction	MAMHLNENLDDNGEMHDINVTPFIDVMLVLLIIFMVAAPLATVDVKVNLPASTSTPQPRPEKPVYLSVKADNSMFIGNDPVTDETMITALNALTEGCKDTTIFFRADKTVDYETLMKVMDTLHQAGYLKIGLVGEETAKAK [K97C]
decreasing interaction	MAMHLNENLDDNGEMHDINVTPFINVMLVLLIIFMVAAPLATVDVKVNLPASTSTPQPRPEKPVYLSVKADNSMFIGNDPVTDETMITALNALTEGKKDTTIFFRADKTVDYETLMKVMDTLHQAGYLKIGLVGEETAKAK [D25N]
